According to article doi:10.1101/2020.01.06.896597 (bioRxiv, 2020):

B1: full-length (FL) human ACAT1 (enzyme, UniProt P35610 1-550, looked up)
chain: MVGEEKMSLRNRLSKSRENPEEDEDQRNPAKESLETPSNGRIDIKQLIAKKIKLTAEAEELKPFFMKEVGSHFDDFVTNLIEKSASLDNGGCALTTFSVLEGEKNNHRAKDLRAPPEQGKIFIARRSLLDELLEVDHIRTIYHMFIALLILFILSTLVVDYIDEGRLVLEFSLLSYAFGKFPTVVWTWWIMFLSTFSVPYFLFQHWATGYSKSSHPLIRSLFHGFLFMIFQIGVLGFGPTYVVLAYTLPPASRFIIIFEQIRFVMKAHSFVRENVPRVLNSAKEKSSTVPIPTVNQYLYFLFAPTLIYRDSYPRNPTVRWGYVAMKFAQVFGCFFYVYYIFERLCAPLFRNIKQEPFSARVLVLCVFNSILPGVLILFLTFFAFLHCWLNAFAEMLRFGDRMFYKDWWNSTSYSNYYRTWNVVVHDWLYYYAYKDFLWFFSKRFKSAAMLAVFAVSAVVHEYALAVCLSFFYPVLFVLFMFFGMAFNFIVNDSRKKPIWNVLMWTSLFLGNGVLLCFYSQEWYARQHCPLKNPTFLDYVRPRSWTCRYVF
B2: ACAT1-ΔNTD (domain or fragment, human, UniProt P35610 111-550, looked up)
chain: DLRAPPEQGKIFIARRSLLDELLEVDHIRTIYHMFIALLILFILSTLVVDYIDEGRLVLEFSLLSYAFGKFPTVVWTWWIMFLSTFSVPYFLFQHWATGYSKSSHPLIRSLFHGFLFMIFQIGVLGFGPTYVVLAYTLPPASRFIIIFEQIRFVMKAHSFVRENVPRVLNSAKEKSSTVPIPTVNQYLYFLFAPTLIYRDSYPRNPTVRWGYVAMKFAQVFGCFFYVYYIFERLCAPLFRNIKQEPFSARVLVLCVFNSILPGVLILFLTFFAFLHCWLNAFAEMLRFGDRMFYKDWWNSTSYSNYYRTWNVVVHDWLYYYAYKDFLWFFSKRFKSAAMLAVFAVSAVVHEYALAVCLSFFYPVLFVLFMFFGMAFNFIVNDSRKKPIWNVLMWTSLFLGNGVLLCFYSQEWYARQHCPLKNPTFLDYVRPRSWTCRYVF

Columns and labels:
[1] = biological target: the molecule itself; assay: cryo-EM structure
[2] = biological target: the molecule itself; assay: cryo-EM 2D class averages

Protein | stoichiometry N [1] | stoichiometry N [2]
B1 | 4 | –
B2 | – | 2
